Each block holds one molecule with its values, some of them ahead of it.
How the values were obtained:
Bgl3B = target: T1, Bgl3B (Rasamsonia emersonii, UniProt A0A343J2C3); assay: pNP release at […] nm, Dixon plot; type: biochemical; details: substrate pNPG 3 or 4 mM; pH 4.5, 65°C, citric acid-Na2HPO4; inhibition mode not stated
T1 construct: pPIC9, secreted from Pichia pastoris GS115; N-glycosylated, about 100 kDa on SDS-PAGE
T1 sequence (A0A343J2C3 1-841): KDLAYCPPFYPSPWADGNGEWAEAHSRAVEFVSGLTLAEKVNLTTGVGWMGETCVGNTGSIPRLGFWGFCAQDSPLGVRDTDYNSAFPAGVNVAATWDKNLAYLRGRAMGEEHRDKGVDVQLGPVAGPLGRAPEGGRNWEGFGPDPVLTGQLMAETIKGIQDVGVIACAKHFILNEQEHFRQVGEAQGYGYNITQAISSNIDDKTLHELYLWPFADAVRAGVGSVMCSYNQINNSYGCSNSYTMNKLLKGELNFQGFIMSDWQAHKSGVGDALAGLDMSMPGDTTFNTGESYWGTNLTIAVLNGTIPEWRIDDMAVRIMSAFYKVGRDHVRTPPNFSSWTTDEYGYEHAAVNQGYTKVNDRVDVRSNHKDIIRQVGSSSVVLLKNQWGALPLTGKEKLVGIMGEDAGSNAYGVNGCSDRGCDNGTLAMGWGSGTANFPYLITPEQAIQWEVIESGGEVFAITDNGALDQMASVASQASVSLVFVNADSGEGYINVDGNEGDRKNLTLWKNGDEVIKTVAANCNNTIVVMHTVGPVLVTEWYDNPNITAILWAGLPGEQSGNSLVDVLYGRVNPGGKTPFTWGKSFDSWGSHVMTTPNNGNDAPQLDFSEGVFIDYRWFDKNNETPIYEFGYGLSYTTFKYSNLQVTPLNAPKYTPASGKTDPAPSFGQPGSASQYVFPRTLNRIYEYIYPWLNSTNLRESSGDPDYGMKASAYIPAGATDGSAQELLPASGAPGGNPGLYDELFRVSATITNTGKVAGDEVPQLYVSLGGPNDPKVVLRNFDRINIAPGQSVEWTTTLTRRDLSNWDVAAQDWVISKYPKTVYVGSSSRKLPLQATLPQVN

purified protein = substrate: O=[N+]([O-])c1ccc(O[C@@H]2O[C@H](CO)[C@@H](O)[C@H](O)[C@H]2O)cc1; assay: purified protein; details: pH 4.5, 65°C, 5 min, 0.2-1.5 mM substrate

- Ki (Bgl3B): 7.1 mM
Molecule: OC[C@H]1OC(O)[C@H](O)[C@@H](O)[C@@H]1O (stereo partly drawn) [glucose]

B1: Bgl3B (Rasamsonia emersonii) (protein)
chain: T1 sequence (A0A343J2C3 1-841)
- Km (purified protein): 1.03 mM
- kcat (purified protein): 714 s⁻¹

— publication PMC6218797, “A Novel Thermostable GH3 β-Glucosidase from Talaromyce leycettanus with Broad Substrate Specificity and Significant Soybean Isoflavone Glycosides-Hydrolyzing Capability” (BioMed Research International, 2018)
